Source: patent US20210332145A1 (SINGLE CELL TECHNOLOGY, published 2021)
Positions count from the first letter of the chain named.

T1: human BCMA with a His tag (ACROBiosystems, Catalog No.: BCA-H522y) (human)
T1 construct: Bought His-tagged recombinant protein; also called huBCMA-His; Recombinant human BCMA
T1 chain: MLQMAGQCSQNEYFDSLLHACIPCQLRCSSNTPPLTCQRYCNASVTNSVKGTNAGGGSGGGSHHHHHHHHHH

T2: BCMA on cells (293T cells transfected with BCMA; H929, MM.1S and U266 cell lines expressing BCMA) (human, UniProt Q02223 1-184)
T2 construct: H929, MM.1S and U266 carry the native protein; also called B-cell Maturation Antigen; TNFRSF17
T2 sequence: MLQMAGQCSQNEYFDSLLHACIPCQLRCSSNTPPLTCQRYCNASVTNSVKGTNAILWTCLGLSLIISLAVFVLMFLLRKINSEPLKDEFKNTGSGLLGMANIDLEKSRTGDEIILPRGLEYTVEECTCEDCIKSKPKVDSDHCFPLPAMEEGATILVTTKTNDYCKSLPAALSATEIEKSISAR

T3: mouse BCMA with a His tag (ACROBiosystems, Catalog No.: BCA-M52H3) (mouse)
T3 construct: Bought His-tagged recombinant protein
T3 chain: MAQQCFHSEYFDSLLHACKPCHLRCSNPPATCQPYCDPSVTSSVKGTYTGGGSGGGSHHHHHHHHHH

B1: SCT-Aa06(h/h) (antibody, V domains shown)
VH: EVQLQQSGPELVKPGNSVKISCKASGYSFTGYFMNWVMQSHGKSLEWIGRINPYNGDTFYNQKFKGKATLTVDKSSSTAHMELRSLTSEDSAVYYCARLDYTNYNSYPMDYWGQGTSVTVSS
VL: DIQMTHTTSSLSASLGDRVTISCSASQGISNYLNWYLQKPDGTVKLLIYYTSNLHSGVPSRFSGSGSGTDFSLTISNLQPEDIATYYCQQYSKFPWTFGGGTKLEIK
notes: Full IgG format, chimeric: human IgG1 heavy chain constant region, human kappa light chain constant region
B2: SCT-Aa16(h/h) (antibody, V domains shown)
VH: EVQLQQSGPELVKPGASVKMSCKGSGYTFTNYIMHWVKQKPGQGLEWIGYIIPYNDNTKYNEKFKGKATLTSDKSSSTAYMELSSLTSEDSAVYYCATYEYDVGLDYWGQGTTLTVSS
VL: B1 VL with I2L, H6Q, S26R, S30V, L37Q, Y50N, N53S, F71Y, Q79E, F94L
notes: as for B1
B3: SCT-Aa12(m/m) (antibody, V domains shown)
VH: QVQLQQSDAELVKPGASVKISCKVSGYTFTDYTIHWMKQRPEQGLEWIGYIFPSDGSTKYNEKFKGKATLTADKSSSTAYMQLNSLTSDDSAVYFCARWDYEGFDYWGQGTTLTVSS
VL: DIVMTQSPATLSVTPGDRVSLSCRASQSISDYLNWYQQKSHESPRLLIKYASQSISGIPSRFSGSGSGSDFTLSINSVEPEDVGVYYCQNGHSFPPTFGSGTKLEIK
notes: Full IgG format: mouse IgG1 heavy chain constant region, mouse kappa light chain constant region
B4: SCT-Aa13(h/h) (antibody, V domains shown)
VH: B3 VH with F52Y, S54R, D89E
VL: B3 VL with N34H
notes: as for B1
B5: SCT-Aa02(m/m) (antibody, V domains shown)
VH: EVKLLQSGGGLVQPGGSLKLSCAASGIDFSRYWMSWVRRAPGKGLEWIGEINPDSSTINSAPSLEDKFIISRDNAKNTLYLQMSKVRSEDTALYYCASLYYDYERDYAMDYWGQGASVTVSS
VL: DIVMTQSQKFMSTSVGDRVSVTCKASQNVGTNVAWYQQKPGQSPKALIYSASYRFSGVPDRFTGSGSGTDFTLTISNVQSEDLAEYFCQQYHSYPFTFGGGTKLEIK
notes: as for B3
B6: SCT-Aa03(h/h) (antibody, V domains shown)
VH: EVKLLQSGGGLVQPGGSLKLSCAASGIDFSRYWMSWVRRAPGKGLEWIGEINPDSSTINYAPSLKDKFIISRDNAKNTLYLQMSKVRSEDTALYYCASFYYDYDHAMDYWGQGTSVTVSS
VL: B5 VL with V19F, H92N, G100S
notes: as for B1
B7: SCT-Aa04(m/m) (antibody, V domains shown)
VH: B5 VH with S60Y, E65K, L99F, E104D, D106G, Y107A, A116T
VL: B5 VL with F55Y, H92N, F96Y
notes: as for B3
B8: SCT-Aa17(h/h) (antibody, V domains shown)
VH: EVQLQQSGPELVKPGASVKMSCKASGYTFTSYVMDWVKQKPGQGLEWIGYINPYNDGTKYNEKFKGKATLTSDKSSSTVYMELSSLTSEDSAVYHCARSDYDYGYAMDYWGQGTSVTVSS
VL: DIQMTQSPASLSLSVGETVTITCRASENIYSNLAWYQQKQGNSPQLLVYSATHLADGVPSRFSGSGSGTQYSLKINSLQSEDFGCYYCQHFWGPPWTFGGGTKLEIK
notes: as for B1
B9: SCT-Aa18(h/h) (antibody, V domains shown)
VH: EVQLQQSGPELVKPGASVKISCKASGYTFISYVMHWVKQKPGQGLEWIGYIIPYNDGTKYNEKFKGKATLTSDKSSSTAYMELSSLTSEDSAVYYCAKWGNWDEGTWFPYWGQGTLVTVSA
VL: DVLMTQTPLSLPVSLGDQASFSCRSSQSIVHSDGNTYLEWYLQKPGQSPKLLIYKISNRFSGVPDRFSGSGSGTDFTLKISRVEAEDLGVYYCFQGSHVPWTFGGGTKLEIK
notes: as for B1

Molecular target: T1, human BCMA with a His tag …
Test: ELISA, plate-coated human BCMA-His
Experimental: (§1) The recombinantly expressed antibodies were used to assess binding activity to BCMA of different species origins by conventional ELISA according to the known art. Recombinant human BCMA, cyno BCMA, and mouse BCMA were coated onto ELISA plates to detect binding at serially diluted concentrations of the anti-BCMA antibody preparations.
(§2) The ability for antibodies of the present disclosure to bind human BCMA was measured with an ELISA assay. For the BCMA binding assay, a 96-well plate (Nunc) is coated with human BCMA with a His tag (ACROBiosystems, Catalog No.: AC108P1-180611F2-Bulk, SEQ ID NO:2) at 0.2 μg/well overnight at 4° C. Wells are blocked for 2 h with blocking buffer (PBS containing 3% bovine serum albumin). Wells are washed three times with PBS containing 0.1% Tween-20. Anti-human BCMA antibodies of the present disclosure or control IgG (100 μL) is then added and incubated at room temperature for 1 h. After washing, the plate is incubated with 100 μL of goat anti-mouse IgG Fcγ Fragment Specific-HRP conjugate (Jackson ImmunoResearch) at room temperature for 1 h. The plates are washed and then incubated with 100 μL of 3,3′,5,5′-tetra-methylbenzidine. The absorbance at 450 nm is read on a microplate reader. The half maximal effective concentration (EC50) is calculated using GraphPad Prism 6 software.
In experiments performed essentially as described above, anti-human BCMA antibodies of the present disclosure bind human BCMA with a His tag (ACROBiosystems, Beijing, China, Catalog No.: BCA-H522y, SEQ ID NO:2) with an EC50 values shown in Table 3.

| Binder | EC50 [mg/L] |
| --- | --- |
| B1 | 0.00278 |
| B2 | 0.00201 |
| B3 | 0.0017 |
| B4 | 0.00268 |
| B5 | 0.00286 |
| B6 | 0.00346 |
| B7 | 0.00232 |
| B8 | 0.00356 |
| B9 | 0.00268 |

Each binder was assayed against T2, BCMA on cells (293T cells transfected …) (assay: flow cytometry, H929 cells).
Experimental: A cell line expressing BCMA, H929, was used to assess binding by anti-BCMA antibodies on the native protein on the cell surface by flow cytometry according to the known art. A subset of anti-human BCMA antibodies were assayed for binding to H929 and the fraction of cells bound the labeled antibody above background defined by control is shown in Table 8.

| Binder | Positive (%) |
| --- | --- |
| B1 | 99.6 |
| B2 | 96.1 |
| B3 | 99.9 |
| B4 | 96.5 |
| B5 | 100 |
| B6 | 98.2 |
| B7 | 99.9 |
| B8 | 75 |
| B9 | 97 |

Molecular target: T2, BCMA on cells (293T cells transfected …)
Test: flow cytometry, H929 cells
Remark: another data set of the same source

| Binder | Mean fluorescent intensity |
| --- | --- |
| B1 | 1260 |
| B2 | 853 |
| B3 | 3480 |
| B4 | 756 |
| B5 | 4560 |
| B6 | 1070 |
| B7 | 3790 |
| B8 | 232 |
| B9 | 875 |

What follows are binders tested against T2, BCMA on cells (293T cells transfected …) (assay: flow cytometry, 293T cells transfected with BCMA, above parental 293T background).

| Binder | Positive (%) |
| --- | --- |
| B1 | 82.8 |
| B2 | 68.1 |
| B3 | 85.7 |
| B4 | 74.3 |
| B5 | 96.3 |
| B6 | 75.1 |
| B7 | 88.9 |
| B8 | 43 |
| B9 | 76.1 |

Molecular target: T1, human BCMA with a His tag …
Test: SPR, Biacore T200
Experimental: The binding affinity of select anti-BCMA was measured on a surface plasmon resonance (SPR) instrument, Biacore T200™, against human BCMA by a method known in the art.
In experiments performed essentially as described above, a subset of anti-human BCMA antibodies of the present disclosure bind human BCMA with a His tag (ACROBiosystems, Beijing, China, Catalog No.: BCA-H522y, SEQ ID NO:2) with affinity shown in Table 6.

| Binder | Kd [nM] | koff [s⁻¹] | kon [M⁻¹ s⁻¹] |
| --- | --- | --- | --- |
| B1 | 5.38 | 0.02 | 3.72e+06 |
| B2 | 26.7 | 0.199 | 7.43e+06 |
| B3 | 5.01 | 0.011 | 2.2e+06 |
| B4 | 4.85 | 0.0157 | 3.23e+06 |
| B5 | 0.388 | 0.000113 | 292000 |
| B6 | 9.49 | 0.00284 | 299000 |
| B7 | 5.62 | 0.0126 | 2.25e+06 |
| B8 | 2.45 | 0.0132 | 5.39e+06 |
| B9 | 12.2 | 0.0506 | 4.15e+06 |

Each binder was assayed against T4, cyno BCMA with a His tag (ACROBiosystems, Catalog No.: BCA-052H7) (cyno) (assay: ELISA, plate-coated cyno BCMA-His).
T4 construct: Bought His-tagged recombinant protein
T4 sequence (chain, as listed by the source limits assumed): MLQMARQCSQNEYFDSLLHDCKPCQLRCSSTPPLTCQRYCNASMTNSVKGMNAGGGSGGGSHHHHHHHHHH
Experimental: as §1, §2
In experiments performed essentially as described above, anti-human BCMA antibodies of the present disclosure bind cyno BCMA with a His tag (ACROBiosystems, Beijing, China, Catalog No.: BCA-052H7, SEQ ID NO:110) with an EC50 values shown in Table 4.

| Binder | EC50 [mg/L] |
| --- | --- |
| B1 | 0.0976 |
| B2 | 0.0778 |
| B3 | 9.74 |
| B4 | 0.131 |
| B5 | 0.0891 |
| B6 | 1.6 |
| B7 | 2.05 |
| B8 | 2.17 |
| B9 | 0.0788 |

Molecular target: T3, mouse BCMA with a His tag …
Test: ELISA, plate-coated mouse BCMA-His
Experimental: as §1, §2
In experiments performed essentially as described above, anti-human BCMA antibodies of the present disclosure bind mouse BCMA with a His tag (ACROBiosystems, Beijing, China, Catalog No.: BCA-M52H3, SEQ ID NO:109) with an EC50 values shown in Table 5.

| Binder | EC50 [mg/L] |
| --- | --- |
| B1 | 0.0972 |
| B2 | 1.08 |
| B3 | 0.0107 |
| B4 | 0.019 |
| B5 | 0.00262 |
| B6 | 0.0108 |
| B7 | 0.0343 |
| B8 | 4.33 |
| B9 | 0.271 |
